No end group written: not given here.

Sequence of human atypical chemokine receptor 3 (ACKR3) (P25106 whole entry): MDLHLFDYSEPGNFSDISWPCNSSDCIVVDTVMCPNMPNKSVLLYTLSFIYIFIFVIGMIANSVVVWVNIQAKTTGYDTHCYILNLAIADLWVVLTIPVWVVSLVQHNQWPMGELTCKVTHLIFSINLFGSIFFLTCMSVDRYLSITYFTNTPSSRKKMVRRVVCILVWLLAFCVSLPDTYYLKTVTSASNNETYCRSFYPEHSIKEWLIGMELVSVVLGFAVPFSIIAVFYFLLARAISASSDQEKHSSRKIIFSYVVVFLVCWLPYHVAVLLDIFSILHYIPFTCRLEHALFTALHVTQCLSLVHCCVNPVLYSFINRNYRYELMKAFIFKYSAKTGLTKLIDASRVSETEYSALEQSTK

The experiment addresses human atypical chemokine receptor 3 (ACKR3) (human, UniProt P25106 1-362). As to the kind of experiment: binding competition with CXCL12-AF647, flow cytometry.
Molecule GGFLRRIRPKLK-NH2 [dynorphin 2-13 (SEQ ID NO: 20; NH2-substituted at C-terminus)] had an IC50 of 20900 nM. For YGGFMRRV-NH2 [adrenorphin, YGGFMRRV (SEQ ID NO: 32; NH2-substituted at C-terminus)] the value was 49 nM; for YGGFLRRQFKVVT [dynorphin B], 465 nM; for FGGFTGARKSARK-NH2 (also: reduced peptide bond ψ(CH2-NH) between Phe1 and Gly2) [Phe1ψ(CH2-NH)-Gly2-Nociceptin-1-13 amide (SEQ ID NO: 13; NH2-substituted at C-terminus)], above 10000 nM. The value for YGGFMRRVGRPEWWMDYQKRYG [BAM22] was 32.7 nM; that for YGGFLRRIRPKLKWDNQ [dynorphin A] was 82.7 nM; that for GGFLRRIRPKLKWDNQ [dynorphin 2-17 (SEQ ID NO: 19)] was 11100 nM. The value for H-FGGFMRRK-NH2 [LIH383, octapeptide FGGFMRRK (SEQ ID NO: 3; NH2-substituted at C-terminus)] was 4 nM.

The values are drawn from US20220236279A1 (published 2022).
